Experiments:
SgIleRS = biological target: T1, SgIleRS (Streptomyces griseus, UniProt B1W0J8); experiment: ATP-PPi exchange inhibition, global fit; assay type: biochemical
T1 construct: gene ileS; ileS from genomic DNA in pET28b, E. coli BL21(DE3), Ni-NTA purified (His tag), ZnCl2 added during growth
T1 sequence (B1W0J8 1-1047): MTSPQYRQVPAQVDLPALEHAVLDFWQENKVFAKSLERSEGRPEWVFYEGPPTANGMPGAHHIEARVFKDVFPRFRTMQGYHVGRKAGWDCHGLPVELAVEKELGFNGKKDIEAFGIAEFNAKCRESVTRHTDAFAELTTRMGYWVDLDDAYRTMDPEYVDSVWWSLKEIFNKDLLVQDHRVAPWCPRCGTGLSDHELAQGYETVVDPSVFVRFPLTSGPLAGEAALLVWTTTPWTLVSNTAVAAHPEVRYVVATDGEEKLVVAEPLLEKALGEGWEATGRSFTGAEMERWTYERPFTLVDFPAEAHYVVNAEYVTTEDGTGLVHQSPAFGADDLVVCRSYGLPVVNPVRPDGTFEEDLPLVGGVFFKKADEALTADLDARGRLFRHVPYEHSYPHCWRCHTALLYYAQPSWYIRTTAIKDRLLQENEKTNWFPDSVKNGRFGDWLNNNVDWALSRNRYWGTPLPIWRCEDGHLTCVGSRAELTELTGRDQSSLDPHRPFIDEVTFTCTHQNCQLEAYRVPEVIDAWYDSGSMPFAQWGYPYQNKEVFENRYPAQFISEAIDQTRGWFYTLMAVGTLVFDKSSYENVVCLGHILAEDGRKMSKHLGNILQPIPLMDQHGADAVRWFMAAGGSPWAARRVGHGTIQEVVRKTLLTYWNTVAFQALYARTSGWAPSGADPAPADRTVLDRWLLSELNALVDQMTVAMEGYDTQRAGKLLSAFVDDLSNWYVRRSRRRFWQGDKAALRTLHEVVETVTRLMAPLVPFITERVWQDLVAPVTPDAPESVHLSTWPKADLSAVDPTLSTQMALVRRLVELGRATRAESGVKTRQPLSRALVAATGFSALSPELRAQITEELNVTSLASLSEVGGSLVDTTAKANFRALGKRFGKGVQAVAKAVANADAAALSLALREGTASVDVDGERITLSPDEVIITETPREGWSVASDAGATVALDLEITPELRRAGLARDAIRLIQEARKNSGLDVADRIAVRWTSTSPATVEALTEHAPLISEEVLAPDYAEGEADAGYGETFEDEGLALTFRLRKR

ScIleRS = biological target: T2, ScIleRS (Saccharomyces cerevisiae, UniProt P09436); experiment: ATP-PPi exchange inhibition, global fit; assay type: biochemical
T2 construct: gene ILS1; pET28b, E. coli Rosetta(DE3), Ni-NTA (His tag) and size-exclusion chromatography, monomer
T2 sequence (P09436 1-1072): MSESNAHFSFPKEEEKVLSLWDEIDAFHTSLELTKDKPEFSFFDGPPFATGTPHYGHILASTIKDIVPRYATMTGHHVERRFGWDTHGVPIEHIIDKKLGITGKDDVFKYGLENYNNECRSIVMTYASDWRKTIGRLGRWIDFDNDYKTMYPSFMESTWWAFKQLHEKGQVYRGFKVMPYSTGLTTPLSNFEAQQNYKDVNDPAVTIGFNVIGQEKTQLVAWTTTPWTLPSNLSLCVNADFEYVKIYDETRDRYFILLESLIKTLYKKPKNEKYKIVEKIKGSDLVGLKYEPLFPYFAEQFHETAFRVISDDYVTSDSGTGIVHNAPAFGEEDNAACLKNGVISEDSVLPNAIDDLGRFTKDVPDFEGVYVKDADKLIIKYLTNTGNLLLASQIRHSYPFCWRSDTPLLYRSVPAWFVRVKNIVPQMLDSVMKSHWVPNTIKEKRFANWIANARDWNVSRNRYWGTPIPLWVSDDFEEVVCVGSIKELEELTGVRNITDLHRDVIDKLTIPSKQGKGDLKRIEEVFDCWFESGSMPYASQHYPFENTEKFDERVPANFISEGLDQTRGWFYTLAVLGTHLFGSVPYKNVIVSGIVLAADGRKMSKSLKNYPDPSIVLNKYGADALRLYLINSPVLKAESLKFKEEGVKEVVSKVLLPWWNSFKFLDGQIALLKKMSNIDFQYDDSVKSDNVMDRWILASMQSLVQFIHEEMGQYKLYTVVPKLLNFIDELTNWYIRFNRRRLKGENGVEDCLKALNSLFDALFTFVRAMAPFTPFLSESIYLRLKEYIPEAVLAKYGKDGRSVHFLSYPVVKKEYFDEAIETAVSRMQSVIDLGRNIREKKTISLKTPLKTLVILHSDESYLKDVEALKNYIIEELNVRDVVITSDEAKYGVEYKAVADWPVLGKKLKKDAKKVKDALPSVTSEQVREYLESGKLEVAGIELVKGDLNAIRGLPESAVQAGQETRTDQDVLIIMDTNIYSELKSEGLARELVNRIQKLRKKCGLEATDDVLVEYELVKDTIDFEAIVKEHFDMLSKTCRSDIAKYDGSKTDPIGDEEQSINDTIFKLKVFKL

[1] = substrate: CC(C)[C@H](N)C(=O)O; experiment: ATP-PPi exchange (amino acid activation); assay type: biochemical, Saccharomyces cerevisiae; settings: 30 °C, pH 7.5, 4 mM ATP, 1 mM PPi, 20 mM MgCl2, no tRNA
Description: (§1) ATP-PPi exchange (amino acid activation) on ScIleRS

[2] = substrate: CC[C@H](C)[C@H](N)C(=O)O; experiment: ATP-PPi exchange (amino acid activation); assay type: biochemical, Saccharomyces cerevisiae; settings: 30 °C, pH 7.5, 4 mM ATP, 1 mM PPi, 20 mM MgCl2, no tRNA
Description: as §1

[3] = substrate: CC(C)[C@H](N)C(=O)O; experiment: ATP-PPi exchange (amino acid activation); assay type: biochemical, Streptomyces griseus; settings: 30 °C, pH 7.5, 4 mM ATP, 1 mM PPi, 20 mM MgCl2, no tRNA
Description: (§2) ATP-PPi exchange (amino acid activation) on SgIleRS

[4] = substrate: CC[C@H](C)[C@H](N)C(=O)O; experiment: ATP-PPi exchange (amino acid activation); assay type: biochemical, Streptomyces griseus; settings: 30 °C, pH 7.5, 4 mM ATP, 1 mM PPi, 20 mM MgCl2, no tRNA
Description: as §2

`C/C(=C\C(=O)OCCCCCCCCC(=O)O)C[C@@H]1OC[C@H](C[C@@H]2O[C@H]2[C@@H](C)[C@H](C)O)[C@@H](O)[C@H]1O` [mupirocin] gave a Ki (SgIleRS) of 10 mM and a Ki (ScIleRS) of 0.028 mM.

B1: ScIleRS (Saccharomyces cerevisiae S288C) (protein)
chain: T2 sequence (P09436 1-1072)
notes: pET28b, E. coli Rosetta(DE3), Ni-NTA (His tag) and size-exclusion chromatography, monomer
In the case of B1, the kcat [1] is reported as 8.6 ± 1 s⁻¹ and the kcat [2] is reported as 11.4 ± 0.8 s⁻¹.

B2: SgIleRS (Streptomyces griseus subsp. griseus NBRC 13350) (protein)
chain: T1 sequence (B1W0J8 1-1047)
notes: ileS from genomic DNA in pET28b, E. coli BL21(DE3), Ni-NTA purified (His tag), ZnCl2 added during growth
B2 was tested, and the kcat [3] was 19.3 ± 0.4 s⁻¹ and the kcat [4] was 20.6 ± 1.4 s⁻¹.
